Columns and labels:
Conditions in all cases: both partners purified
[1] = molecular target: T1, Pex1-FLAG/His-Pex6 hexamer, wild type (S. cerevisiae, UniProt P24004 1-1043; P33760 1-1030); test: inhibition of ATPase activity (ATP/NADH coupled enzyme assay); apparent KD from the concentration-dependent inhibition of the ATPase activity of 5 nM Pex1/Pex6 by titrated Pex15; 5 mM ATP, 2 uM BSA; n = 3 technical replicates
T1 construct: Pex1, S. cerevisiae W303; Pex6, S. cerevisiae W303; Heterohexamer with alternating subunits; also called WT Pex1/Pex6; Pex1/Pex6; source: E. coli BL21*, co-expressed, purified (Ni-NTA, anti-FLAG, Superose6); copies: 3 + 3
T1 sequence (P24004 whole entry, chain 1 of 2): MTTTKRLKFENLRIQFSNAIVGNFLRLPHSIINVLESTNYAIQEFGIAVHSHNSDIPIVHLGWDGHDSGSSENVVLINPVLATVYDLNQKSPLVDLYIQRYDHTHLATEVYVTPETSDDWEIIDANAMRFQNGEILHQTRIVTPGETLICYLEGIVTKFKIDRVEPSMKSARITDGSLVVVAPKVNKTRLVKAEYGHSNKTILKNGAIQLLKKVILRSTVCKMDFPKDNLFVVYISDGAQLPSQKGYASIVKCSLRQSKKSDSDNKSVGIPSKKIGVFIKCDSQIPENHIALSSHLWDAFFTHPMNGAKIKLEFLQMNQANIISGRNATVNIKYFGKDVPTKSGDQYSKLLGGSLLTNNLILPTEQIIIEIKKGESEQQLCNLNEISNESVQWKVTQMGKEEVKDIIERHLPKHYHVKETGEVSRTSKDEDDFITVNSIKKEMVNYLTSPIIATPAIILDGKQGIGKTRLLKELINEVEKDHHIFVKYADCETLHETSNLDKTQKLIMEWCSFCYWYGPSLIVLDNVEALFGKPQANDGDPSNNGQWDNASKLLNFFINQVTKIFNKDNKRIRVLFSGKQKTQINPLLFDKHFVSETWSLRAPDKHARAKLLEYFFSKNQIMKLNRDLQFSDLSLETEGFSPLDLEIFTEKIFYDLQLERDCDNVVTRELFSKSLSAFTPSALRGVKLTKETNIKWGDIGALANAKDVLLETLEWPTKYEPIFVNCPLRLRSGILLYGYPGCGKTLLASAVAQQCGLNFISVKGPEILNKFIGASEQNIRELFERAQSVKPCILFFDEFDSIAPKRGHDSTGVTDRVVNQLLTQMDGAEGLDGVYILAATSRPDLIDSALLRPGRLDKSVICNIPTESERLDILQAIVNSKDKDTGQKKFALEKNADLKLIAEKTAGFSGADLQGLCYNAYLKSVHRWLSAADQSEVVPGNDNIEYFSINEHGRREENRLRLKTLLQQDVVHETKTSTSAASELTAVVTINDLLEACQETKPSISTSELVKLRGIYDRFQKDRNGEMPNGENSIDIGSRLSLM
T1 sequence (P33760 whole entry, chain 2 of 2): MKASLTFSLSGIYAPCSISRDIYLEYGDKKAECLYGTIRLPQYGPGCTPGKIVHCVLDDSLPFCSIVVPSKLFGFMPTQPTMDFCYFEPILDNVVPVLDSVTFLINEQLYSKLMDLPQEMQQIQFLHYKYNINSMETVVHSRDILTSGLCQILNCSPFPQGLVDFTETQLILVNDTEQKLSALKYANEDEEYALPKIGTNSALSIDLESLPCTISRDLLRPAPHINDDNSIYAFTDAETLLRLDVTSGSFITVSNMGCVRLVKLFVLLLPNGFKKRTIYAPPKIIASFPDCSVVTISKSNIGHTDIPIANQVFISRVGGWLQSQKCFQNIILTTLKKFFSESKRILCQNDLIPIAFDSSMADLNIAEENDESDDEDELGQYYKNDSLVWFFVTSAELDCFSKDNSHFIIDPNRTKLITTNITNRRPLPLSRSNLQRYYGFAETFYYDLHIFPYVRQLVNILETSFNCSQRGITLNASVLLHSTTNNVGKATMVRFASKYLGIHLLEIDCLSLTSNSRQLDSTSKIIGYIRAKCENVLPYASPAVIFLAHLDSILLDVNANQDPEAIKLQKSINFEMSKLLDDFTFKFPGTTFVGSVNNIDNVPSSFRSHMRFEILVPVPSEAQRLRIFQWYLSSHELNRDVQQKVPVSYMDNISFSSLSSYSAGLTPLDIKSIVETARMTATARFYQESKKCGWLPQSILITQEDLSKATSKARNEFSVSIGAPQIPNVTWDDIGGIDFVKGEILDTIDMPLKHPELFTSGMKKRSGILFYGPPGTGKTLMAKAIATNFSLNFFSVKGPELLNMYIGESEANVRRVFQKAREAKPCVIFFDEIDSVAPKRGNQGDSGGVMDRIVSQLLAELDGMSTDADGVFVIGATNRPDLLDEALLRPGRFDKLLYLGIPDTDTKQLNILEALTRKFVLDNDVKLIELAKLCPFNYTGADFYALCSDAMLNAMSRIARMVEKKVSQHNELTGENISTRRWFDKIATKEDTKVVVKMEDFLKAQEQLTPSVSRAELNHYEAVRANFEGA

[2] = molecular target: T2, Pex1-FLAG/His-Pex6 (V245A, T246A) hexamer (S. cerevisiae, UniProt P24004 1-1043; P33760 1-1030, V245A | T246A); test: as above
T2 construct: Pex1, S. cerevisiae W303; also called Pex1/Pex6-VT:AA; Pex6 VT:AA; source: E. coli BL21*, co-expressed, purified (Ni-NTA, anti-FLAG, Superose6); copies: 3 + 3
T2 sequence (P24004 whole entry, chain 1 of 2): as the sequence (P24004 whole entry, chain 1 of 2) above
T2 sequence (P33760 whole entry V245A/T246A, chain 2 of 2): as the sequence (P33760 whole entry, chain 2 of 2) above, with V245A, T246A counted along it

[3] = molecular target: T1, Pex1-FLAG/His-Pex6 hexamer, wild type; test: as above; remark: listed apart in the source
[4] = molecular target: T3, Pex1-WB2/Pex6-WB2 mutant hexamer (Pex1-E798Q-Strep/His-Pex6-E832Q) (S. cerevisiae, UniProt P24004 1-1043; P33760 1-1030, E798Q | E832Q); test: HDX-MS; 3 uM Pex15 1-309 and 100 nM Pex1-WB2/Pex6-WB2 hexamer in D2O buffer (60 mM HEPES pD 7.6, 50 mM NaCl, 50 mM KCl, 10% glycerol, 10 mM MgCl2, 0.5 mM EDTA, 5 mM ATP); 15 s deuteration, with and without saturating Pex15
T3 construct: Pex1, S. cerevisiae W303, Walker B D2 mutant; Pex6, S. cerevisiae W303, Walker B D2 mutant; also called Pex1-WB/Pex6-WB; ATPase-deficient Pex1/Pex6; source: E. coli BL21*, co-expressed, purified (Ni-NTA, Streptactin); copies: 3 + 3
T3 sequence (P24004 whole entry E798Q, chain 1 of 2): as the sequence (P24004 whole entry, chain 1 of 2) above, with E798Q counted along it
T3 sequence (P33760 whole entry E832Q, chain 2 of 2): as the sequence (P33760 whole entry, chain 2 of 2) above, with E832Q counted along it

[5] = molecular target: T4, fluorescein-labeled Pex5 (Pex5-FAM) (S. cerevisiae, UniProt P35056 1-612, fluorescein-conjugated peptide GGGK-FAM joined by sortase at the LPETGG site at the C-terminus); test: pull-down; 2 μM MBP-Pex15 1-327 on magnetic amylose resin with 350 nM Pex5-FAM, with or without 1 μM Pex1-WB2/Pex6-WB2 and 100 μM SKL peptide, 1 h, 4 °C, 60 mM HEPES pH 7.6, 150 mM NaCl, 150 mM KCl, 10% glycerol, 0.05% Tween-20, 10 mM MgCl2, 0.5 mM EDTA, 5 mM ATP; eluted with 20 mM maltose; Pex5 seen by its fluorescein
T4 construct: Pex5, S. cerevisiae W303 coding region, followed by a sortase site (LPETGG) upstream of the C-terminal 6xHis tag; Likely derived from FLAG-Pex5-His, so an N-terminal FLAG tag may be present; After sortase the C-terminus should read LPET-GGGK(FAM); source: E. coli BL21*, purified, sortase-labelled, Ni-NTA flow-through, Superdex 200 increase; not shown: His6, C-terminal, cleaved
T4 sequence (looked up): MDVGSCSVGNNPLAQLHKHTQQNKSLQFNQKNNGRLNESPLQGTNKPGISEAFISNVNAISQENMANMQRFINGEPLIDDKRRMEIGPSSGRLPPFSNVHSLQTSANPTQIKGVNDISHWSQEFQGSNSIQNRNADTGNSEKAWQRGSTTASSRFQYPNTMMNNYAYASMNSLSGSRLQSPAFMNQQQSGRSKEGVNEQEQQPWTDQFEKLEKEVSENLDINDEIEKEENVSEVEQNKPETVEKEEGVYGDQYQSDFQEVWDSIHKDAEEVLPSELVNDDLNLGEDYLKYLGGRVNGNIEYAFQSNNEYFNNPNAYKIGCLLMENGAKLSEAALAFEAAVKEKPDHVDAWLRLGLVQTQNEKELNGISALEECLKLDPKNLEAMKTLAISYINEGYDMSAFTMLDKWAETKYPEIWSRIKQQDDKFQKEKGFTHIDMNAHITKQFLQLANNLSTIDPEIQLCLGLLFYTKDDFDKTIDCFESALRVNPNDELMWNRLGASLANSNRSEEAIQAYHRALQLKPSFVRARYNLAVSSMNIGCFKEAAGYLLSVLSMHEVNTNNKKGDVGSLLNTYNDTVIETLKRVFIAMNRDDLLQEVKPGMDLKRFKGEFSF

[6] = molecular target: T5, Pex1-FLAG/His-Pex6 hexamer, wild type (S. cerevisiae, UniProt P24004 1-1043; P33760 1-1030); test: negative-stain EM reconstruction; 20 nM Pex1-FLAG/His-Pex6 mixed with 200 nM Pex15, 5 min on ice, 5 mM ATP; 3D reconstruction at 23.2 Å
T5 construct: Pex1, S. cerevisiae W303 coding region; Pex6, S. cerevisiae W303 coding region; also called Pex1/Pex6; wild-type Pex1/Pex6; source: E. coli BL21*, co-expressed, purified (Ni-NTA, anti-FLAG, Superose6); not shown: FLAG, C-terminal, kept; His6, N-terminal, kept; copies: 3 + 3
T5 sequence (P24004 whole entry, chain 1 of 2): as the sequence (P24004 whole entry, chain 1 of 2) above
T5 sequence (P33760 whole entry, chain 2 of 2): as the sequence (P33760 whole entry, chain 2 of 2) above

B1: Pex15 1-309 (cytosolic domain) (domain or fragment, S. cerevisiae, UniProt Q08215 1-309, looked up)
chain: MAASEIMNNLPMHSLDSSLRDLLNDDLFIESDESTKSVNDQRSEVFQECVNLFIKRDIKDCLEKMSEVGFIDITVFKSNPMILDLFVSACDIMPSFTKLGLTLQSEILNIFTLDTPQCIETRKIILGDLSKLLVINKFFRCCIKVIQFNLTDHTEQEEKTLELESIMSDFIFVYITKMRTTIDVVGLQELIEIFIFQVKVKLHHKKPSPNMYWALCKTLPKLSPTLKGLYLSKDVSIEDAILNSIDNKIQKDKAKSKGKQRGVKQKIHHFHEPMLHNSSEEQVKVEDAFNQRTSTDSRLQSTGTAPRKK
notes: likely here too; source: E. coli BL21*, purified (Ni-NTA, tag cleaved with PreScission protease, Superdex 200); not shown: His, C-terminal, cleaved
- Kd [1]: 0.58 ± 0.18 µM
- Kd [2]: 1.98 ± 0.58 µM
- Kd [3]: 0.58 µM
- binding result [4]: binds

B2: MBP-Pex15 1-327-FLAG-His (domain or fragment, S. cerevisiae, UniProt Q08215 1-327, looked up)
chain: MAASEIMNNLPMHSLDSSLRDLLNDDLFIESDESTKSVNDQRSEVFQECVNLFIKRDIKDCLEKMSEVGFIDITVFKSNPMILDLFVSACDIMPSFTKLGLTLQSEILNIFTLDTPQCIETRKIILGDLSKLLVINKFFRCCIKVIQFNLTDHTEQEEKTLELESIMSDFIFVYITKMRTTIDVVGLQELIEIFIFQVKVKLHHKKPSPNMYWALCKTLPKLSPTLKGLYLSKDVSIEDAILNSIDNKIQKDKAKSKGKQRGVKQKIHHFHEPMLHNSSEEQVKVEDAFNQRTSTDSRLQSTGTAPRKKNNDITVLAGSFWAVLKHH
notes: Pex15, S. cerevisiae W303, cytosolic domain residues 1-327; not shown: MBP, N-terminal, kept; FLAG, C-terminal, kept; His, C-terminal, kept
- binding result [5]: binds

B3: Pex15 cytosolic domain (aa 1-327), as used for negative-stain EM (domain or fragment, S. cerevisiae, UniProt Q08215 1-327, looked up)
chain: B2 chain
notes: Pex15, S. cerevisiae W303, cytosolic domain residues 1-327; also called Pex15 cytosolic portion; source: E. coli BL21*, purified (Ni-NTA, Superdex 200); not shown: His, C-terminal, cleaved
- stoichiometry N [6]: 3 Pex15 per Pex1/Pex6 hexamer

Reference: article PMC5762779, “The peroxisomal AAA-ATPase Pex1/Pex6 unfolds substrates by processive threading” (Nature Communications, 2018)
